Experimental data taken from patent US20150291681A1 (published 2015).

B1: tomato-tagged Ser (Sertom), wild type Drosophila Serrate (ligand)
chain: GNFELEILEISNTNSHLLNGYCCGMPAELRATKTIGCSPCTTAFRLCLKEYQTTEQGASISTGCSFGNATTKILGGSSFVLSDPGVGAIVLPFTFRWTKSFTLILQALDMYNTSYPDAERLIEETSYSGVILPSPEWKTLDHIGRNARITYRVRVQCAVTYYNTTCTTFCRPRDDQFGHYACGSEGQKLCLNGWQGVNCEEAICKAGCDPVHGKCDRPGECECRPGWRGPLCNECMVYPGCKHGSCNGSAWKCVCDTNWGGILCDQDLNFCGTHEPCKHGGTCENTAPDKYRCTCAEGLSGEQCEIVEHPCATRPCRNGGTCTLKTSNRTQAQVYRTSHGRSNMGRPVRRSSSMRSLDHLRPEGQALNGSSSSGLVSLGSLQLQQQLAPDFTCDCAAGWTGPTCEINIDECAGGPCEHGGTCIDLIGGFRCECPPEWHGDVCQVDVNECEAPHSAGIAANALLTTTATAIIGSNLSSTALLAALTSAVASTSLAIGPCINAKECRNQPGSFACICKEGWGGVTCAENLDDCVGQCRNGATCIDLVNDYRCACASGFTGRDCETDIDECATSPCRNGGECVDMVGKFNCICPLGYSGSLCEEAKENCTPSPCLEGHCLNTPEGYYCHCPPDRAGKHCEQLRPLCSQPPCNEGCFANVSLATSATTTTTTTTTATTTRKMAKPSGLPCSGHGSCEMSDVGTFCKCHVGHTGTFCEHNLNECSPNPCRNGGICLDGDGDFTCECMSGWTGKRCSERATGCYAGQCQNGGTCMPGAPDKALQPHCRCAPGWTGLFCAEAIDQCRGQPCHNGGTCESGAGWFRCVCAQGFSGPDCRINVNECSPQPCQGGATCIDGIGGYSCICPPGRHGLRCEILLSDPKSACQNASNTISPYTALNRSQNWLDIALTGRTEDDENCNACVCENGTSRCTNLWCGLPNCYKVDPLSKSSNLSGVCKQHEVCVPALSETCLSSPCNVRGDCRALEPSRRVAPPRLPAKSSCWPNQAVVNENCARLTILLALERVGKGASVEGLCSLVRVLLAAQLIKKPASTFGQDPGMLMVLCDLKTGTNDTVELTVSSSKLNDPQLPVAVGLLGELLSSRQLNGIQRRKELELQHAKLAALTSIVEVKLETARVADGSGHSLLIGVLCGVFIVLVGFSVFISLYWKQRLAYRTSSGMNLTPSLDALRHEEEKSNNLQNEENLRRYTNPLKGSTSSLRAATGMELSLNPAPELAASAASSSALHRSQPLFPPCDFERELDSSTGLKQAHKRSSQILLHKTQNSDMRKNTVGSLDSPRKDFGKRSINCKSMPPSSGDEGSDVLATTVMV
notes: The tomato tag is an internal insertion in the intracellular domain; also called Ser+Tomato; Ser Bsp tom; not shown: fluorescent tomato tag (Shaner et al., 2004), INSERTED within the intracellular domain at the Bsp EI site of the Ser cDN
B2: wild type Drosophila Serrate (Ser), UAS-Ser transgene (ligand)
chain: B1 chain
notes: also called wild type Ser

What was measured:
[1] = molecular target: T1, EGFP labeled Notch (Drosophila Notch stably expressed on S2 cells) (Drosophila, UniProt P07207 53-2703); assay: S2 cell aggregation; Sertom DNA transfected into Notch-EGFP cells (cis), competitor of Sertom cells (trans)
T1 construct: whole, on cells; how EGFP is joined to Notch is not described; also called Notch+EGFP; N+EGFP; not shown: EGFP label
T1 sequence (P07207 53-2703): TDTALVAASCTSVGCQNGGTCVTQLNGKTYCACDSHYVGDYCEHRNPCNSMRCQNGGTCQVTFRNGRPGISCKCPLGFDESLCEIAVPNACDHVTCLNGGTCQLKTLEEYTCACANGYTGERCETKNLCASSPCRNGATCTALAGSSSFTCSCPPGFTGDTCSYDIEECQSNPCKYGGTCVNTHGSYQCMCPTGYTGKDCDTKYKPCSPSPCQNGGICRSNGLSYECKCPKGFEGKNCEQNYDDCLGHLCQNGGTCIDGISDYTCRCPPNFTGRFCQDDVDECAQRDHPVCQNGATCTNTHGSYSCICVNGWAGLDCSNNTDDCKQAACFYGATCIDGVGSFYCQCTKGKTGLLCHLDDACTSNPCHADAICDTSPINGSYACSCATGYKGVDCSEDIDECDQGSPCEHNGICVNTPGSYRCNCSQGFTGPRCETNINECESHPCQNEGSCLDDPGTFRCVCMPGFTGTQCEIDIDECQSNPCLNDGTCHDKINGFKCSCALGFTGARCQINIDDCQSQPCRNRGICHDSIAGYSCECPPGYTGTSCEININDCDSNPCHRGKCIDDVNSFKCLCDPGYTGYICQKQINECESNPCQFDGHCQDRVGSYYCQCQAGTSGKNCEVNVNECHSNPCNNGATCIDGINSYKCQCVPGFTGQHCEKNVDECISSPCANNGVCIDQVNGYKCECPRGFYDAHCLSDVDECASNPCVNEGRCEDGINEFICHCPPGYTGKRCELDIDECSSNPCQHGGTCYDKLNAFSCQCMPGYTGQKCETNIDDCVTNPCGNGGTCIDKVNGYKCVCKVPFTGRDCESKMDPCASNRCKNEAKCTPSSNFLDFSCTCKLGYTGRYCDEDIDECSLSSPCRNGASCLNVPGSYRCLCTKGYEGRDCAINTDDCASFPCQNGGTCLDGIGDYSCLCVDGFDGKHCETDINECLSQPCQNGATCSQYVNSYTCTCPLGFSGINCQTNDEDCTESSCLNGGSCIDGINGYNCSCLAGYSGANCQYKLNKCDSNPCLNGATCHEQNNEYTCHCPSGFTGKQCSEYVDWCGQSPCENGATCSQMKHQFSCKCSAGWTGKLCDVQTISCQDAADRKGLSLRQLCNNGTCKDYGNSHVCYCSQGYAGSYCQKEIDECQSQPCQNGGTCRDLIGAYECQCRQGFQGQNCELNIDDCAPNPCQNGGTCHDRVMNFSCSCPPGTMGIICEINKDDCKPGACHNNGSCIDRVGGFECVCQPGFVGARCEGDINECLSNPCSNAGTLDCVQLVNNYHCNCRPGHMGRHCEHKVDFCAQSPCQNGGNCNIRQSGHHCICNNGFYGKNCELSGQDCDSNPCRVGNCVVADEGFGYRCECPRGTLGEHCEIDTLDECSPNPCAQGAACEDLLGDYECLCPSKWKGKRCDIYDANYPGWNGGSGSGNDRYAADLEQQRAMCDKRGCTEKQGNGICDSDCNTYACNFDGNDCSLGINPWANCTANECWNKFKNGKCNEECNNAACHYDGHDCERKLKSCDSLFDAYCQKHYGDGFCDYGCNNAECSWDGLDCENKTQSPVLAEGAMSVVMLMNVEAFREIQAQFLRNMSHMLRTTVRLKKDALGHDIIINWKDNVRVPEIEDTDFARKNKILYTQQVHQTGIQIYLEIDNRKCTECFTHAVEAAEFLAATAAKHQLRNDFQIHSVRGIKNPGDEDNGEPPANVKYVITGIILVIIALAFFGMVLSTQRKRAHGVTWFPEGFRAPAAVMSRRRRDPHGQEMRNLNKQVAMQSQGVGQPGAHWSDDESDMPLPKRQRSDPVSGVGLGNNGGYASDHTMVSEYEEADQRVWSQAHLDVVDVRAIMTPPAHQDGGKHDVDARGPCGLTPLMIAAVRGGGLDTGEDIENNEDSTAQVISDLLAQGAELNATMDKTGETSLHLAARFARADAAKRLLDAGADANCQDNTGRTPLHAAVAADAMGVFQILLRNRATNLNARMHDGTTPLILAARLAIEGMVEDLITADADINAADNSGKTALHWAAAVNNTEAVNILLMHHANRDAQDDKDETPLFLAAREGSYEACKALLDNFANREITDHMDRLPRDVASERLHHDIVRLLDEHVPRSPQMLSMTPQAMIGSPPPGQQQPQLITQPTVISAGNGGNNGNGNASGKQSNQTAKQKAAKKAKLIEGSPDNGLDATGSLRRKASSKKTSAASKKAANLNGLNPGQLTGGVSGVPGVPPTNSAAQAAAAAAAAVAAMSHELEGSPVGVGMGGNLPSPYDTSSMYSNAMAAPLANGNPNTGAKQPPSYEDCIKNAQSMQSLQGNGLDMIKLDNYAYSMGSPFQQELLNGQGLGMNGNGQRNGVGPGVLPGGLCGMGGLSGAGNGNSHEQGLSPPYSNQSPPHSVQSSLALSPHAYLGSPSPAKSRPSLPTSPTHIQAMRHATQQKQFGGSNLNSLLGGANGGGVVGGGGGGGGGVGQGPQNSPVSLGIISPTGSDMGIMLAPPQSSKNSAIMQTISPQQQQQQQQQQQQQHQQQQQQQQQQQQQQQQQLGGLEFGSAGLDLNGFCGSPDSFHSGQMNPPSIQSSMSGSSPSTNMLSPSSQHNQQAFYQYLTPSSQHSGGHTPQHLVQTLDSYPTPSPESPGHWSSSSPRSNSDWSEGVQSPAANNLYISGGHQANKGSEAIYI
Protocol: Stable lines of EGFP-labeled Notch cells were added to stable lines of tomato tagged Ser-expressing cells, allowed to mix for 24 hours at room temperature and were assayed for the formation of interacting cellular aggregates (Fehon et al., 1990, Cell 3:523-534). The Notch expressing cells were transiently transfected with tomato-tagged Ser DNA at concentrations ranging between 0.0 μg and 2.0 μg prior to mixing with Ser expressing cells to induce cis-inhibition by co-expressed Ser with Notch. When performed with wild type Ser DNA (A of this figure), effective inhibition of aggregation occurs in a dose dependent manner when the Ser expressing cells (Ser labeled columns) are mixed with the transfected Notch cells. When Ser expressing cells are not mixed with the transfected Notch cells (S2R+), self-aggregate formation is minimal.
S2 cells stably expressing tomato-tagged Ser (Sertom) were mixed with S2 cells stably expressing EGFP labeled Notch and allowed to aggregate with one another to determine baseline levels of Notch-Ser interactions (FIG. 6). Subsequent experiments transiently transfected the stable Notch EGFP line with either Sertom (wild type), SerDel6tom or SerDel3tom transgenes at varying concentrations to promote cis-inhibition within the Notch-expressing cells. […]

[2] = molecular target: T2, endogenous Drosophila Notch (wing imaginal disc) (Drosophila, UniProt P07207 53-2703); assay: summing-up sentence; inferred from trans-activation in wing discs and aggregation assays
T2 construct: whole, on cells; also called Notch receptor
T2 sequence (P07207 53-2703): as above
Protocol: To define potential inhibitory domains in the extracellular domain of the Notch ligands, a systematic deletion analysis of an extracellular region of the Drosophila Notch ligand Ser was performed. Ser has 14 ELRs in its extracellular domain (FIG. 4) and has been the ligand best explored for its inhibitory properties (Klein et al., 1997, Dev. Biol. 1:123-134; Li and Baker, 2004, BMC Dev. Biol. 5). […] Using the Gal4ptc promoter, the influence of ectopic Ser expression on Notch activity was measured by examining how it affects the expression of CUT, a transcriptional target of Notch signals and is a classic indicator of Notch activity in the dorsal/ventral boundary and ventral region of the wing disc (Doherty et al., 1996, Genes Dev. 4:421-434).
Ser constructs were expressed in the third instar imaginal wing disc via the ptc promoter using the Gal4 system (Brand and Perrimon, 1993, Development 2:401-415). Notch activity was assessed by examination of CUT expression induced in response to Notch activity (Neumann and Cohen, 1996, Development 11:3477-3485). […]

Binder	binding result [1]	binding result [2]
B1	binds	–
B2	–	binds
